Laboratory results reported in patent publication US20250163223A1, “HYDROGEL INCLUSION COMPLEX INCLUDING PHYSIOLOGICALLY ACTIVE MATERIAL BOUND TO THERMOSENSITIVE POLY(PHOSPHAZENE) BY HOST-GUEST INTERACTION USING BETA-CYCLODEXTRIN AND USE THEREOF” (KOREA INSTITUTE OF SCIENCE AND TECHNOLOGY, priority 2019, published 2025).
Ends that are not written are not given here. PEG = not defined here

Assay: Dynamic light scattering (DLS) particle size in aqueous environment
Format: physicochemical
Source text: In this example, it was hypothesized that binding affinity between β-CD and Ad-RGD would induce the well-controlled guest molecule amount through the Ad-RGDs inserted at different amounts with one another. First of all, β-CD PPZ and β-CD PPZ+Ad-RGD gave different results from measurement of dynamic light scattering (DLS). […] As Ad-RGDs were included in β-CD PPZ, the practical size of aqueous particles of β-CD PPZ+Ad-RGD was increased.
Further, to identify whether Ad-peptides were stoichiometrically and accurately inserted into the host molecules, dynamic light scattering (DLS) measurement was performed by mixing host molecules and guest molecules such that the ratio of host molecule: guest molecule was 1:1, 1:1.2, and 0:1. […] In this DLS result of the conjugate in which the ratio of host molecule:guest molecule was 1:1, any peaks involved in guest molecules alone were not shown (C of FIG. 17). It means that there were no guest molecules separated from β-CD PPZ. […] This means that all of the Ad-peptides were incorporated into the conjugates of β-CD PPZ and Ad-peptide (host molecule:guest molecule=1:1) in the aqueous environment. On the other hand, it was confirmed that when Ad-peptides was excessively mixed with β-CD PPZ (host molecule: guest molecule=1:1.2), the surplus Ad-peptides formed their own other peaks analogous to those of Ad-TGF and Ad-HAV alone (FIG. 18). […]

Substance	average particle size [nm]
adamantane-PEG-CESPLKRQ ({adamantane-PEG}-CESPLKRQ; reading uncertain) [Ad-TGF, TGF-β1 mimic peptide linked to adamantane via PEG]	353.63±31.71
adamantane-PEG-CLRAHAVDIN ({adamantane-PEG}-CLRAHAVDIN; not fully specified; reading uncertain) [Ad-HAV, N-cadherin mimic peptide linked to adamantane via PEG]	460.78±49.53
